Reference: PMC11915804, “In situ structures of the contractile nanomachine myophage Mu in both its extended and contracted states” (Journal of Virology, 2025)

B2: baseplate wedge protein 3 (BW3) gp48 (natural protein, phage Mu, UniProt Q9T1V1 1-180, looked up)
chain: MAVTPWQTAFLQLLPSGLAWNKSPDSKLSALAQAISDVIATAADDARQMLRERFPSTSRWYLGEWESFLGLPDCTSENGTLSERQRAAANKMRMTGNLSRRFYEWLAAQYGFTVRLTDSTEGQWVTQVNIYGIKNYRNATVLDNVLTPLRVYESGALECLLEKYKPAHQIYKFVYHDGDN
notes: baseplate wedge protein 3 gp48 of myophage Mu, as it stands in the virion; One copy in each of the six wedges; Model deposited here; source: phage Mu virions grown on E. coli (ATCC 23724), purified (PEG 8000/NaCl precipitation, CsCl gradient)

Key:
Test in all cases: cryo-EM structure; purified phage Mu virions in the extended state (native phage) in phage buffer (10 mM MgCl2, 5 mM NaCl, 10 mM Tris-HCl, pH 7.4); icosahedral, symmetry-mismatch and local reconstruction; 3.2 Å (3-fold capsid), 3.4 Å (portal-adaptor), 3.5 Å (terminator-tail), 3.3 Å (baseplate)
Settings in all cases: both partners purified
[1] = target: B2
tail sheath protein gp39 = target: T1, tail sheath protein gp39 (phage Mu, UniProt P79678 1-495)
T1 construct: tail sheath protein gp39 of myophage Mu, as it stands in the virion; Hexameric rings, 30 of them stacked in the tail; Model deposited here; source: phage Mu virions grown on E. coli (ATCC 23724), purified (PEG 8000/NaCl precipitation, CsCl gradient)
T1 sequence (looked up): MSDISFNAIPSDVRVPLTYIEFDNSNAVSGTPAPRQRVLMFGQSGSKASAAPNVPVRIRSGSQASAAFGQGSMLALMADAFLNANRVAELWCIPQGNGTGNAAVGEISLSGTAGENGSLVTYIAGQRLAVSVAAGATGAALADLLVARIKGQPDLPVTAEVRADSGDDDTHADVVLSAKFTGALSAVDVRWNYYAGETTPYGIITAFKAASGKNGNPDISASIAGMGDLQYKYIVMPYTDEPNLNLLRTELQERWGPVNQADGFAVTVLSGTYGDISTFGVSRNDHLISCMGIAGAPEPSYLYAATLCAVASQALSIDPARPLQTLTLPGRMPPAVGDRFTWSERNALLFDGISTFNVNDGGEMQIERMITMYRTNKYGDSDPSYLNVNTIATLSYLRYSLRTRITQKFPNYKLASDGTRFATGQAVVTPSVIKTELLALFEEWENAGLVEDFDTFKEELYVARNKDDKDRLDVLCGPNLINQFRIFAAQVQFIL

[2] = target: T2, tube initiator protein gp43 (phage Mu, UniProt P08557 1-495)
T2 construct: tube initiator protein gp43 (N protein, DNA circularization protein) of myophage Mu, as it stands in the virion; Hexamer; Model deposited here; also called N protein; DNA circularization protein; source: phage Mu virions grown on E. coli (ATCC 23724), purified (PEG 8000/NaCl precipitation, CsCl gradient)
T2 sequence (looked up): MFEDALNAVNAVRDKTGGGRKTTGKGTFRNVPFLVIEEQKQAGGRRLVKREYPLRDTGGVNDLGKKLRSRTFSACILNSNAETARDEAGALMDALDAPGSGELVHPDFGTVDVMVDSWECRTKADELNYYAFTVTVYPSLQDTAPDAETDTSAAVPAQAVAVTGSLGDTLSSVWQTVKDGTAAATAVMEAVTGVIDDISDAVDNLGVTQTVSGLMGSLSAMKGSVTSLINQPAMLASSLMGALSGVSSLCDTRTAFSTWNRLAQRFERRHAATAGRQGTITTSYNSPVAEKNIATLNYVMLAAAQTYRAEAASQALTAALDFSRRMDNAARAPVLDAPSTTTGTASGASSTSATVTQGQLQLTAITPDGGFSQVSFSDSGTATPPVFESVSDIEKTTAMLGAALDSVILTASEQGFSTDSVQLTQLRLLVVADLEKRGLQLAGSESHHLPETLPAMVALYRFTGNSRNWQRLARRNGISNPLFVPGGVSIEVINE

[3] = target: T3, baseplate wedge protein 2 (BW2) gp47 (phage Mu, UniProt Q9T1V2 1-360)
T3 construct: baseplate wedge protein 2 gp47 of myophage Mu, as it stands in the virion; Two conformers (BW2-i, BW2-o) in each of the six wedges; Model deposited here; also called BW2-i; BW2-o; source: phage Mu virions grown on E. coli (ATCC 23724), purified (PEG 8000/NaCl precipitation, CsCl gradient)
T3 sequence (looked up): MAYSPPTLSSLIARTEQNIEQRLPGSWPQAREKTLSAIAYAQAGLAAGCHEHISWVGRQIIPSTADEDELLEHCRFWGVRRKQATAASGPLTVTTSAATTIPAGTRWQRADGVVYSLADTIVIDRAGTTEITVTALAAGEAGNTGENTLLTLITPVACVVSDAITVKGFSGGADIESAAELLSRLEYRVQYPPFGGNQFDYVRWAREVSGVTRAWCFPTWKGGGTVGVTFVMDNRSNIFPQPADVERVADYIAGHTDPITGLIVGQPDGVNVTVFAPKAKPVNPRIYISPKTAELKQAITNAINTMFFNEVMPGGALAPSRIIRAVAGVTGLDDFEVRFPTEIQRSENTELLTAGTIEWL

[4] = target: T4, G(+) type fiber protein gp49 (phage Mu, UniProt Q9T1V0 1-504)
T4 construct: G(+) type tail fiber protein gp49 of myophage Mu, as it stands in the virion; only the N-terminus was modelled; Trimer; six fibers in the baseplate; Model deposited here; source: phage Mu virions grown on E. coli (ATCC 23724), purified (PEG 8000/NaCl precipitation, CsCl gradient)
T4 sequence (looked up): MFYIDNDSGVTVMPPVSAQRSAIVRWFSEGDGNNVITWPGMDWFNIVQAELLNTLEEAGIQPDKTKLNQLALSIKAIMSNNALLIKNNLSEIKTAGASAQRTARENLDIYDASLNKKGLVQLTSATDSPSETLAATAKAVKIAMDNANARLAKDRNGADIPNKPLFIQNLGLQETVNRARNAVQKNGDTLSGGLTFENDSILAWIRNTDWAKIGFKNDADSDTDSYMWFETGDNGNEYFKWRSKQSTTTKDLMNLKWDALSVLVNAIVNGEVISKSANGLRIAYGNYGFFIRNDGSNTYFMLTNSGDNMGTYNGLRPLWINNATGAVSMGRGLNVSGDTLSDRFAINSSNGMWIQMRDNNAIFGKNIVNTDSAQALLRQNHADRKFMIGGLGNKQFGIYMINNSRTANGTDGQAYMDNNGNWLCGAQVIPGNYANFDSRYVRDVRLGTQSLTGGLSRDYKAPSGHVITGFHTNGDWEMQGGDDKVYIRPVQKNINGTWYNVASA

Measured: binding result

B1: baseplate wedge protein 1 (BW1) gp46 (natural protein, phage Mu, UniProt Q9T1V3 1-145, looked up)
chain: MTDLAIIWTNGRGDIAQDGIDMLTDDSLTTDVTISLFTDRRALDSDTLPDGSDDRRGWWGDSYRDRPIGSRLWLLSREKATPDTLERARGYAEEALEWLKTAGRVSAINVRAEQLHQGWLYLYIALTLPDGSVIPYEFKAAFNGV
notes: baseplate wedge protein 1 gp46 of myophage Mu, as it stands in the virion; One copy in each of the six wedges; Model deposited here; source: phage Mu virions grown on E. coli (ATCC 23724), purified (PEG 8000/NaCl precipitation, CsCl gradient)
not listed: [4]
binds: all other assays above

B2
binds: [4] | [2] | [3]
